Source: patent US20220064276A1 (SCHOLAR ROCK, published 2022)

Tests used:
[1] = target: LTBP-proTGFβ1: transfected human proTGFβ1 presented by endogenous LTBP1/3 of LN229 cells (human); test: cell-based or functional assay
[2] = target: T1, mouse LTBP1-proTGFβ1 complex (mouse, UniProt Q8CG19 339-1712; P04202 30-390); test: cell-based or functional assay
[3] = target: T2, human LRRC33-proTGFβ1 complex (human, UniProt Q86YC3 19-650; P01137 30-390, limits assumed); test: Octet, antibody immobilized
T2 construct: Exemplary entries; also called huLRRC33 proTGFb1; HuLRRC33-ProTGFb1

[4] = target: T3, human LTBP3-proTGFβ1 complex (human, UniProt Q9NS15 44-1303; P01137 30-390, limits assumed); test: Octet BLI, IgG captured
T3 construct: Exemplary entries; also called Hu LTBP3-proTGFβ1; huLTBP3 proTGFb1
Procedure: (§1) LTBP complex-specific antibodies from the first round of affinity maturation/optimization (SR-AB14, SR-AB16, SR-AB17, SR-AB18, SR-AB19) were selected for a second round of affinity maturation/optimization (i.e., CDR-H3 mutagenesis as described herein) and particular progeny antibodies (SR-AB20, SR-AB21, SR-AB22, SR-AB23, SR-AB24, SR-AB25, SR-AB26, SR-AB27, SR-AB28, and SR-AB29) were assessed for their ability to bind various proTGFβ1 constructs. Binding affinities of the optimized antibodies were measured by Octet against human LTBP1-proTGFβ1, human LTBP3-proTGFbl, mouse LTBP1-proTGFβ1, mouse LTBP3-proTGFbl, and GARP-proTGFβ1 complexes, essentially as described in Example 6. […] The antigens were allowed to associate for 3 minutes followed by a 5-minute dissociation. Kinetics buffer (ForteBio®) was used throughout the experiment, and KD was determined using a 1:1 fitting model for each antibody antigen pair.

[5] = target: T4, mouse LTBP3-proTGFβ1 complex (mouse, UniProt Q61810 41-1245; P04202 30-390, limits assumed); test: Octet BLI, IgG captured
T4 construct: Exemplary entries; also called Mo LTBP3-proTGFβ1; Murine LTBP3 proTGFb1
Procedure: as §1

[6] = target: T1, mouse LTBP1-proTGFβ1 complex; test: Octet BLI, IgG captured
Procedure: as §1

[7] = target: T5, human LTBP1-proTGFβ1 complex (human, UniProt Q14766 347-1721; P01137 30-390); test: Octet BLI, IgG captured
T5 construct: Large latent complex: one presenting molecule disulfide-linked to a proTGFβ1 dimer; also called Hu LTBP1-proTGFβ1; huLTBP1 proTGFβ1
Procedure: as §1

[8] = target: T6, human GARP-proTGFβ1 complex (human, UniProt Q14392 18-627; P01137 30-390, limits assumed); test: Octet (bio-layer interferometry), response at 200 nM antigen; 0.1 nm cutoff designates meaningful binding
T6 construct: Exemplary entries; also called Hu GARP-proTGFβ1; huGARP proTGFb1
Procedure: This experiment was performed at 200, 100, 50, and 25 nM human GARP proTGFb1 and human LTBP1 proTGFbl. […] Surface plasmon resonance (SPR)-based assays

[9] = target: T5, human LTBP1-proTGFβ1 complex; test: Octet binning; competitor (immobilized second antibody) SR-AB1
Procedure: (§2) 500 nM of human LTBP1-proTGFb1 complex was pre-incubated with 1 μM of each test antibody. After an overnight incubation, the LTBP1-proTGFβ1+first antibody was tested for binding to a second antibody which was immobilized to an Anti-Human IgG Fc Capture (AHC) sensor tip at 67 nM. The sensor tip was blocked with a negative control antibody (HuNeg) before seeing the LTBP1-proTGFβ1+first antibody.
(§3) Normalized responses less than 70% or less than 0.7 of the uninhibited interaction were considered antibodies that cross block.

[10] = target: T1, mouse LTBP1-proTGFβ1 complex; test: Octet (bio-layer interferometry), yeast expressed IgG1Agly antibody, antigen at a single 100 nM per Example 6, 1:1 fit; value printed under the panel
Target sequence in this assay (P04202 30-390 limits assumed, one chain of several): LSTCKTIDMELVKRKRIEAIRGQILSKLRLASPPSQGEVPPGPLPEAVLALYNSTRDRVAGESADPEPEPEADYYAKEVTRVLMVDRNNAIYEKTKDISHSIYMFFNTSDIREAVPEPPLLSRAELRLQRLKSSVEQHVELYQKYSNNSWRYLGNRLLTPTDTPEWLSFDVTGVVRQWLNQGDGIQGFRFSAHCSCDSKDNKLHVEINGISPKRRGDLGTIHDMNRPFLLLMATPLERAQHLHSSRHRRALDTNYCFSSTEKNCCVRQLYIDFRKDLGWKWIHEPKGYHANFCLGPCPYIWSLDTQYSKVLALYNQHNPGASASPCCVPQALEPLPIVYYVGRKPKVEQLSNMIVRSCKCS

[11] = target: T5, human LTBP1-proTGFβ1 complex; test: as above
mature TGFβ1 = target: T7, mature TGFβ1 (UniProt P01137 279-390); test: FIG. 2B binding assay
T7 construct: mature

[12] = target: T5, human LTBP1-proTGFβ1 complex; test: Octet binning; competitor (immobilized second antibody) SR-AB2
Procedure: as §2, §3

[13] = target: T6, human GARP-proTGFβ1 complex; test: Octet (bio-layer interferometry), yeast expressed IgG1Agly antibody, antigen at a single 100 nM per Example 6
[14] = target: T4, mouse LTBP3-proTGFβ1 complex; test: as above
Rat LTBP1-proTGFβ1 = target: T8, Rat LTBP1-proTGFβ1 (rat); test: bio-layer interferometry sensorgrams (y axis nm), concentration series with kinetic table under the panel; concentrations not shown
T8 construct: the sheet labels the whole complex 'Rat'; Named only on the sheet; The legend says only that SR-AB2 cross-reacts with rodent LTBP1-proTGFβ1

[15] = target: T1, mouse LTBP1-proTGFβ1 complex; test: as above
Target sequence in this assay (P04202 30-390 limits assumed, one chain of several): as above

[16] = target: T5, human LTBP1-proTGFβ1 complex; test: as above
[17] = target: T5, human LTBP1-proTGFβ1 complex; test: Octet binning; competitor (immobilized second antibody) SR-AB10
Procedure: as §2, §3

[18] = target: T5, human LTBP1-proTGFβ1 complex; test: Octet binning; competitor (immobilized second antibody) SR-AB13
Procedure: as §2, §3

proTGFβ1 alone = target: T9, proTGFβ1 alone (Homo sapiens (Human), UniProt P01137 30-390); test: ELISA on immobilised antigen (Example 4), RLU, mean ± SD
T9 construct: proTGFβ1 not in complex with a presenting molecule

LTBP1 alone = target: T10, LTBP1 alone (Homo sapiens (Human), UniProt Q14766 347-1721); test: as above
T10 construct: LTBP1 not in complex with TGFβ1
T10 sequence: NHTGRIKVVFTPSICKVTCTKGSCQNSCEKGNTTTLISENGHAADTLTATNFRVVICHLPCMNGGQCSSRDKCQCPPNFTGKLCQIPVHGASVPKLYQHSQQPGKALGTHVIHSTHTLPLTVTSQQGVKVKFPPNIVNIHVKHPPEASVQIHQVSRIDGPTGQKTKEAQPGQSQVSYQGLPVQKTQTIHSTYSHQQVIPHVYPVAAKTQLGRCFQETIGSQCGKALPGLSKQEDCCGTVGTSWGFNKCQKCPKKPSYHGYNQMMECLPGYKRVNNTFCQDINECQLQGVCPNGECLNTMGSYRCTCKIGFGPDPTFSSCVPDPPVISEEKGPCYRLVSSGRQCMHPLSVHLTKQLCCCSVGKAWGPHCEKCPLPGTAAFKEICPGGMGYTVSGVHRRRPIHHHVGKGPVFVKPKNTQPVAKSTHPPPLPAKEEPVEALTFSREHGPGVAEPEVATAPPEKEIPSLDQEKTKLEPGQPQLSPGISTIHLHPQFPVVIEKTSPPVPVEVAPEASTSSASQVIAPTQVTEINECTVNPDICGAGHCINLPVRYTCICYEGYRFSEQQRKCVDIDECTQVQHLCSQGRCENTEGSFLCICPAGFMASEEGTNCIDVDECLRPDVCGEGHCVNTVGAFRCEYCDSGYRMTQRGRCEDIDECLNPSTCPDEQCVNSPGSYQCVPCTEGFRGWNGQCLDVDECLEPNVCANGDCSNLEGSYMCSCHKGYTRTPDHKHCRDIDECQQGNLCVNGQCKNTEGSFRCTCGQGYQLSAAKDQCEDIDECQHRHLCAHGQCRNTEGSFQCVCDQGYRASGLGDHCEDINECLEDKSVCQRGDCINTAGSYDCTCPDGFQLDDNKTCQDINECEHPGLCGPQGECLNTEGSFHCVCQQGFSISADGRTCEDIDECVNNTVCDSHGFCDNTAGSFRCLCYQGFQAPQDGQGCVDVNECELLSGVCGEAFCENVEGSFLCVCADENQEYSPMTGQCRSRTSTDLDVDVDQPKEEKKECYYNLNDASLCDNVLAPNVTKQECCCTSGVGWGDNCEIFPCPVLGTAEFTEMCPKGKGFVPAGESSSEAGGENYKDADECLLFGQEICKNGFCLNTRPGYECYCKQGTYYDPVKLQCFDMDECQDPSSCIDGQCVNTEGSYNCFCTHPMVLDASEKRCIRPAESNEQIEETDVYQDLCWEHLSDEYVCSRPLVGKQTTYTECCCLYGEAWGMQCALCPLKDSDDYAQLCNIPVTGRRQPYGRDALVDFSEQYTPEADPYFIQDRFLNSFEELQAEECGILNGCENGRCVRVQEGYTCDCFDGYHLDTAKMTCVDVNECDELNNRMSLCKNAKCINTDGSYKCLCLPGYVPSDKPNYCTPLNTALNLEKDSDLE

T5 sequence (P01137 30-390 limits assumed, one chain of several): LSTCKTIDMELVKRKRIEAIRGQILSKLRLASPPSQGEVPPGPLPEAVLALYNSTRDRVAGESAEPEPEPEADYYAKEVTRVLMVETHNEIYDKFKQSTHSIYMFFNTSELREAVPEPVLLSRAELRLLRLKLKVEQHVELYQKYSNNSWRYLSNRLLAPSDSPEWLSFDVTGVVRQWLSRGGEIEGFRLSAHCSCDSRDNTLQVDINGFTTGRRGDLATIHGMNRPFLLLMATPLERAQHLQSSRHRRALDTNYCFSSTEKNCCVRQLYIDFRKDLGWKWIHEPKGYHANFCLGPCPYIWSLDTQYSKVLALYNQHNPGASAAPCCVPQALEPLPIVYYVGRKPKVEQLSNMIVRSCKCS
T4 sequence (Q61810 other isoform, or with tags, fused parts or gaps limits assumed, chain 1 of 2): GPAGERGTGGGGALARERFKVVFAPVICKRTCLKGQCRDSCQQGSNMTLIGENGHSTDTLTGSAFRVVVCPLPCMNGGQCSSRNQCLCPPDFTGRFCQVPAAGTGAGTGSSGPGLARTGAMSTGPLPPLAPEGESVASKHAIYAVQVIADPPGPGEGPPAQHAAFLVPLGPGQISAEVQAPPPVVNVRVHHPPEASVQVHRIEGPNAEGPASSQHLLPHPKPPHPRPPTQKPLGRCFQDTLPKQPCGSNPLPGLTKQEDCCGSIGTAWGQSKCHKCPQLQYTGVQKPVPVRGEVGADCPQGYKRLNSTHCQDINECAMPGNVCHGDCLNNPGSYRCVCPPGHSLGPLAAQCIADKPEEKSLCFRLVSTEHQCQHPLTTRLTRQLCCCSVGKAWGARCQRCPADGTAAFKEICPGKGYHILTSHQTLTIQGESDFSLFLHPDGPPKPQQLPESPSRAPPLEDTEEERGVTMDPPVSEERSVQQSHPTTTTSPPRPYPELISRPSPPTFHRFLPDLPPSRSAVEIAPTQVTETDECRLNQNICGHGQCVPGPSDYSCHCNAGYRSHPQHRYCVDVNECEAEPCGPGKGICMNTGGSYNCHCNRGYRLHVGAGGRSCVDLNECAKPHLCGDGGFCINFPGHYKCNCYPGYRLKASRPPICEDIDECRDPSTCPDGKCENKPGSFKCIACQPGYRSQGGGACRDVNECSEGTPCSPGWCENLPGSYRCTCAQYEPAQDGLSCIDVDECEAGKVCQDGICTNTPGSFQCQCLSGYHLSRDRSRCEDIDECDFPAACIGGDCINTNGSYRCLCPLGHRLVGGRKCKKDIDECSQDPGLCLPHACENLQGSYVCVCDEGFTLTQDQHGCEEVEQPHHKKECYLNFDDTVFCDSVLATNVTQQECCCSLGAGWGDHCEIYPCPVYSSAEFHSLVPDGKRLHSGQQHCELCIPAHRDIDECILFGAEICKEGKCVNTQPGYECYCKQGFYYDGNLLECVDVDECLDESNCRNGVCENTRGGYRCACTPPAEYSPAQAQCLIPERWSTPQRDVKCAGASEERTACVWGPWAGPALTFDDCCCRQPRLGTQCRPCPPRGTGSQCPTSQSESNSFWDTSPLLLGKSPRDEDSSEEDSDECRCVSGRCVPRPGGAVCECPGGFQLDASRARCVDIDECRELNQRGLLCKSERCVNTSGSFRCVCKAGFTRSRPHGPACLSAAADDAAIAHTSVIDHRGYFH
T4 sequence (P04202 30-390 limits assumed, chain 2 of 2): as the sequence (P04202 30-390 limits assumed, one chain of several) above
T6 sequence (Q14392 18-627 limits assumed, chain 1 of 2): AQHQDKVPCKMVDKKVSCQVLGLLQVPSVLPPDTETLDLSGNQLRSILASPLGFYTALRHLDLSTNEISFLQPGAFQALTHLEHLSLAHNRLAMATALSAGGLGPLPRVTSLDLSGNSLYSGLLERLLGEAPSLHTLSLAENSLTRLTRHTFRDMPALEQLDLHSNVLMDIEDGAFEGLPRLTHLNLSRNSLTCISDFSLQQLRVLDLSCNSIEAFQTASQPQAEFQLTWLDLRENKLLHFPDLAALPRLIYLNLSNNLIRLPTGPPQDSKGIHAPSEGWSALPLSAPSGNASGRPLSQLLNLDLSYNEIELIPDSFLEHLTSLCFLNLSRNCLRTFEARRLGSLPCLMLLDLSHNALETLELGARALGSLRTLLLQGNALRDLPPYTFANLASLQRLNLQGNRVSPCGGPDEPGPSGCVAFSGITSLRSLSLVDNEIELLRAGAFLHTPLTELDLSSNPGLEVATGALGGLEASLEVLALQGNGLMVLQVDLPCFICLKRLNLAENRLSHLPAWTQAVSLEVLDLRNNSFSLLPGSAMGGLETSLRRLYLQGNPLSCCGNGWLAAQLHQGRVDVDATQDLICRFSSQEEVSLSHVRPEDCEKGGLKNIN
T6 sequence (P01137 30-390 limits assumed, chain 2 of 2): as the sequence (P01137 30-390 limits assumed, one chain of several) above
T2 sequence (Q86YC3 19-650 limits assumed, chain 1 of 2): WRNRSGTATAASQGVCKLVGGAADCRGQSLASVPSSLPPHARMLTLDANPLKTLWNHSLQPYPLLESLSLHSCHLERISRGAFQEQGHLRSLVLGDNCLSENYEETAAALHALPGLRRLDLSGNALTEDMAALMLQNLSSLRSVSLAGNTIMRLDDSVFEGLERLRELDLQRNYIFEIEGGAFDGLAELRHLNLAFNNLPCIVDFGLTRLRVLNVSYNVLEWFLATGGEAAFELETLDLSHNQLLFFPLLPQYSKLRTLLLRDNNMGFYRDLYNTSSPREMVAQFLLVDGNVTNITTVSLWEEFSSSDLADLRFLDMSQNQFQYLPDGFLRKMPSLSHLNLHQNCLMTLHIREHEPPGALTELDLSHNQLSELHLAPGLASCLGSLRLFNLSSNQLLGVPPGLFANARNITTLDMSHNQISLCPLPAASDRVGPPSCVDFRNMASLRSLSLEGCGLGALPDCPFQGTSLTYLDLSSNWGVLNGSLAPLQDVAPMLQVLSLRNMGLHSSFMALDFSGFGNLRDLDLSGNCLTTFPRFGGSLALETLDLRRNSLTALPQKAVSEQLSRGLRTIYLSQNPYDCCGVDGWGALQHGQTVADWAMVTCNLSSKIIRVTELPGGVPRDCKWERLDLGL
T2 sequence (P01137 30-390 limits assumed, chain 2 of 2): as the sequence (P01137 30-390 limits assumed, one chain of several) above
T7 sequence (P01137 279-390 limits assumed): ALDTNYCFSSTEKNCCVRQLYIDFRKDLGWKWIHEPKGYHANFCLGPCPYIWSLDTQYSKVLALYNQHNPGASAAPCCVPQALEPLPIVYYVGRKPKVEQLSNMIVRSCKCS
T9 sequence (P01137 30-390): as the sequence (P01137 30-390 limits assumed, one chain of several) above

B1: SR-AB23 (antibody, IgG1, V domains shown)
VH: QVQLVESGGGVVQPGRSLRLSCAASGFTFRSYVMHWVRQAPGKGLEWVAVISHEGSLKYYADSVKGRFTISRDNSKNTLYLQMNSLRAEDTAVYYCARPRIAARRGGFGYWGQGTLVTVSS
VL: NFMLTQPHSVSESPGKTVTISCTRSSGNIDNNYVQWYQQRPGSSPTTVIYEDNQRPSGVPDRFSGSIDSSSNSASLTISGLKTEDEADYYCQSYDSDNQGVVFGGGTKLTVL
notes: Cycle 2, lineage SR-AB14
- IC50, endogenous hLTBP assay (CAGA12 luciferase) [1]: 6.04 nM
- IC50, mLTBP1 assay (CAGA12 luciferase) [2]: 0.946 nM
- binding result [3]: no binding
- Kd [4]: 1.26 nM
- Kd [5]: 7.93 nM
- Kd [6]: 8.38 nM
- Kd [7]: 5.98 nM
- binding result [8]: no binding (tested: 200 nM)

B2: SR-AB2 (antibody, V domains shown)
VH: QVQLVQSGAEVKKPGASVKVSCKASGYTFTSYGISWVRQAPGQGLEWMGWISAYNGNTNYAQKLQGRVTMTTDTSTSTAYMELRSLRSDDTAVYYCARAPLGNFDSWGQGTMVTVSS
VL: NFMLTQPHSVSESPGKTVTISCTRSSGSIASNYVQWYQQRPGSSPTTVIYEDNQRPSGVPDRFSGSIDSSSNSASLTISGLKTEDEADYYCQSYDSSNHPVVFGGGTKLTVL
- normalized response [9]: 1.11 fraction of uninhibited binding
- Kd [10]: 245 nM
- Kd [11]: 118 nM
- binding result (mature TGFβ1): no binding
- normalized response [12]: 0.47 fraction of uninhibited binding
- binding result [13]: no binding (tested: 100 nM)
- binding result [14]: no binding (tested: 100 nM)
- Kd (Rat LTBP1-proTGFβ1): 174 nM
- kobs (Rat LTBP1-proTGFβ1): 0.0176 s⁻¹
- koff (Rat LTBP1-proTGFβ1): 0.00582 s⁻¹
- kon (Rat LTBP1-proTGFβ1): 41900 M⁻¹ s⁻¹
- Kd [15]: 204 nM
- kobs [15]: 0.0134 s⁻¹
- koff [15]: 0.00517 s⁻¹
- kon [15]: 26600 M⁻¹ s⁻¹
- Kd [16]: 188 nM
- kobs [16]: 0.0142 s⁻¹
- koff [16]: 0.00502 s⁻¹
- kon [16]: 28400 M⁻¹ s⁻¹
- normalized response [17]: 1.54 fraction of uninhibited binding
- normalized response [18]: 1.31 fraction of uninhibited binding
- binding result (proTGFβ1 alone): no binding
- binding result (LTBP1 alone): no binding
